{"source": "paper PMC4409929", "about": "(Cell, 2015)", "molecules": {"B1": {"name": "TcEsxB, EsxB of Thermomonospora curvata (natural protein, UniProt D1A4H0 1-104, looked up)", "chain": "MAPQSAVDRAAMAQAAQDIEQSANAIRGMQNQLASAKDQLRSHWEGDASMAFEAVFNRFNEDFSRVLKALDGMHESLVQTRITYEAREEAAQQSVNRVQALLNG"}, "B2": {"name": "TcEsxAB heterodimer (complex, Thermomonospora curvata)", "chain 1": "MSDYTRANFGGLSEGEAQFSMTARALLDELTDLEGKLRAKLDRWDGDAQAAYWNYQKEWDAAAKDMQNVVAQLGVAIREAHDNYQAAERANTSIWAG", "chain 2": "B1 chain"}, "B3": {"name": "TcEccC(cyto,R543A) (domain or fragment, Thermomonospora curvata, UniProt D1A4G7 199-1315, looked up)", "chain": "VPDLPVAISLRSFARILPDGDPKAVYGMVRALIMQLAAFHSPDDVRITVCASRERMPQWQWMKWLPHSLHPTEYDAAGQVRLLTHSLVELESMLGPEIKDRGMFGASRAPAEPFHLVIVDGGQASYDSQIASDGIDGVCVIDLTGSVAETNEATMLRLRVTPERVYVVKRDRAGKEVLSSVGRPDQASIAEAEALARQLAPFRTSAADEPEEDVLSANMTLTSLLHIDNPYNLDPAVLWRPRPQRNRLRVPIGLDADGRPLELDIKESAQGGMGPHGLCIGATGSGKSELLRTLVLALAMTHSPEVLNFVLVDFKGGATFLGMEGLRHVSAIITNLEEELPLVDAMYDALHGEMVRRQEHLRHSGNYASLRDYEKARMEGAPLPPMPTLFIVLDEFSELLSAKPDFAELFVMIGRLGRSLGVHLLLASQRLEEGKLRGLDTHLSYRIGLRTFSAMESRVVLGVPDAYELPPSPGNGYLKFATEPLVRFKAAYVSGPVDEEPQTRSEGPQIVRQVLPYLTDYIRPQVVEQPQPEQRAEENKSSESLFDVVVRQLAGHGPEPHQIWLPPLDVPPTLDELLPPLSPSAAHGYTADGWEWRGRLHAVVGLVDRPFDQRRDPYWLDLSGGAGHVGVAGGPQTGKSTMLRTLITSLALLHTPQEVQFYCLDFGGGTLAGLAELPHVGSVATRLDADRIRRTVAEVSALLEQREQEFTERGIDSMATYRRLRATGEYAGDGFGDVFLVVDNWLTLRQDYEALEDSITQLAARGLGYGIHVVLSSNKWSEFRTSIRDLLGTKLELRLGDPYESEVDRKKAANVPENRPGRGLTRDGYHFLTALPRIDGDTSAETLTEGIATTVKTIREAWHGPTAPPVRMLPNVLPAAQLPSAAESGTRIPIGIDEDSLSPVYLDFNTDPHFLVFGDTECGKSNLLRLITAGIIERYTPQQARLIFIDYSRSLLDVATTEHQIGYAASSTAASSLVRDIKGAMEARLPPPDLTPEQLRSRSWWTGAELFLVVDDYEMVATSDNPLRPLAELLPQARDIGLHLIIARSMGGAGRALYEPIIQRIKEMASPGLVMSGNKDEGILLGNVKPHKLPQGRGYFVERRSGTRLIQTAYRES"}, "B4": {"name": "TcEsxA, EsxA of Thermomonospora curvata (natural protein, UniProt D1A4H1 1-97, looked up)", "chain": "B2 chain 1"}}, "key": {"GbEssCb": {"target": "GbEssCb (Geobacillus thermodenitrificans, UniProt A4IKE7)", "sequence (A4IKE7 921-1479)": "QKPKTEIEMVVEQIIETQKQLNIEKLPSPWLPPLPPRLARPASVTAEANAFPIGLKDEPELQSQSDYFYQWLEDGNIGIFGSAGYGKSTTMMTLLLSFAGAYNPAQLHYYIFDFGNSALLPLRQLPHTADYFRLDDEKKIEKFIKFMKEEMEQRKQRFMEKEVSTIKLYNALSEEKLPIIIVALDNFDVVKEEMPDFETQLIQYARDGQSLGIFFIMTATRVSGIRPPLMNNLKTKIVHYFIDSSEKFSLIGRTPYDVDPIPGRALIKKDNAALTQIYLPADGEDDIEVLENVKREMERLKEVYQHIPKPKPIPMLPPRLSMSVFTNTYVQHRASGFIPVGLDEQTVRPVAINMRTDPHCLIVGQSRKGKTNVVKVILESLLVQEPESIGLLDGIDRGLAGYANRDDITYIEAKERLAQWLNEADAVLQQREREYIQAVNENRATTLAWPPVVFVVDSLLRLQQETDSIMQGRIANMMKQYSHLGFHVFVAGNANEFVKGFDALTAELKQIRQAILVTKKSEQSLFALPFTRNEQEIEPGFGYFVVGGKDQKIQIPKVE", "conditions": "ATP bound in both ATPase domains"}, "[1]": {"target": "the molecule itself"}, "[2]": {"target": "T1, TcEccC(cyto), cytoplasmic portion of EccC from Thermomonospora curvata (Thermomonospora curvata, UniProt D1A4G7 199-1315)", "T1 sequence (looked up)": "B3 chain with A345R"}, "TcEccC(cyto,R543A)": {"target": "B3", "test": "cell-based or functional assay"}, "[3]": {"target": "T1, TcEccC(cyto), cytoplasmic portion of …", "test": "fluorescence polarisation"}, "cross-linking": {"target": "the molecule itself", "test": "cross-linking"}, "[4]": {"target": "T1, TcEccC(cyto), cytoplasmic portion of …", "test": "fluorescence polarisation", "remark": "listed apart in the source"}, "[5]": {"target": "B1"}}, "note": "Changes are numbered by the printed parent chain. In names and notes the source's numbering stands. Read-outs that look alike come from different tables or passages of the source. Where no end group is shown, it is not given here. The star is where a group is joined. 5FAM = O=C1OC2(c3ccc(O)cc3Oc3cc(O)ccc32)c2ccc(C(=O)*)cc21", "data": [{"molecule": "Nc1ncnc2c1ncn2[C@@H]1O[C@H](COP(=O)(O)OP(=O)(O)OP(=O)(O)O)[C@@H](O)[C@H]1O", "note": "[ATP]", "values": [{"measurement": "X-ray crystal structure", "setting": "GbEssCb", "value": "has a very similar structure, with both domains bound to ATP"}]}, {"molecule": "B1", "values": [{"measurement": "stoichiometry N", "setting": "[1]", "value": 2}, {"measurement": "Kd", "setting": "[2]", "value": "~10", "unit": "µM"}, {"measurement": "ATPase activity of TcEccC(cyto,R543A) with added TcEsxB (0-10 μM)", "setting": "TcEccC(cyto,R543A)", "value": 5, "unit": "fold"}]}, {"molecule": "B2", "values": [{"measurement": "binding result", "setting": "[3]", "value": "binds"}]}, {"molecule": "B3", "values": [{"measurement": "binding result", "setting": "cross-linking", "value": "binds"}]}, {"molecule": "5FAM-VNRVQALLNG", "note": "[fluorescently labeled signal sequence peptide 5-FAM-VNRVQALLNG]", "values": [{"measurement": "binding result", "setting": "[4]", "value": "binds"}]}, {"molecule": "B4", "values": [{"measurement": "stoichiometry N", "setting": "[5]", "value": 1}]}]}
